Test results from US20240148892A1.

How the values were obtained:
[1] = biological target: human full-length B7H3 expressed on MCF-7 cells (human) (UniProt Q5ZPR3); experiment: flow cytometry (FACS) on MCF-7 cells expressing human full-length B7H3; negative control
[2] = biological target: cynomolgus monkey B7H3 on transfected FlpinCHO cells (cynomolgus monkey); experiment: flow cytometry (FACS) on FlpinCHO cells transfected with cynomolgus monkey B7H3; negative control
[3] = biological target: human full-length B7H3 expressed on MCF-7 cells (human) (UniProt Q5ZPR3); experiment: cell-based or functional assay

Chain of human full-length B7H3 expressed on MCF-7 cells (human) (Q5ZPR3 29-534 limits assumed): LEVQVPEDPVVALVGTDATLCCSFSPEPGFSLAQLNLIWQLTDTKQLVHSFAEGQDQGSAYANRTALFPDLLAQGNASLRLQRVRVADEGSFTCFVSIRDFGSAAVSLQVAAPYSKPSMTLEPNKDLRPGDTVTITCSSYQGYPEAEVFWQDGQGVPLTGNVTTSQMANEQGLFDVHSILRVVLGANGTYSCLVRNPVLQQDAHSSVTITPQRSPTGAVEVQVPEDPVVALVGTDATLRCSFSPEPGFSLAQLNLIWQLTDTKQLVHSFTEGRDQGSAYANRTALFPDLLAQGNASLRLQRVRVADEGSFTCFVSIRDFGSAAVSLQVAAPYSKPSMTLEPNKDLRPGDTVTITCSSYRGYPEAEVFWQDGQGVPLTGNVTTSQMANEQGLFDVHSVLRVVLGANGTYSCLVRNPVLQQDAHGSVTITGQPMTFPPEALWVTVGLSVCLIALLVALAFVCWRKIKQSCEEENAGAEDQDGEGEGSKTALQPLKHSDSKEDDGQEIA

Substance: hIgG1 isotype (antibody)
- Maximum MFI [1]: 47.8 MFI
- Maximum MFI [2]: 6.67 MFI
- Antibody internalization Maximum MFI, MCF-7 cells, high-content imaging (negative control) [3]: 21 MFI
